Consider five molecules from patent US12723255B2, “Herbicide tolerance genes and methods of use thereof” (priority 2014, dated 2026).

The test system of series [1] is transgenic soybean plants. Briefly: R0 soybean 2,4-D spray test of 2,4-D optimized variants. It counts as in vivo. To be noted: for tolerance to 2,4-D treatment: 2× application rate, soy. The source says:
An additional five engineered proteins optimized for activity for 2,4-D were then selected for analysis in transgenic soybean. DNA constructs were produced for expressing MON-HT13 (SEQ ID NO:47), MON-HT14 (SEQ ID NO:48), MON-HT15 (SEQ ID NO:49), MON-HT17 (SEQ ID NO:51), and MON-HT18 (SEQ ID NO:52) with codon usage optimized for dicot expression. The operably linked expression elements (promoter, leader, intron, CTP, and 3′UTR) were identical in all of the constructs. Leaf samples were taken from R0 plantlets and single copy plants were identified using a PCR-based assay. When the single-copy R0 plants had approximately two to three trifoliate leaves, they were treated with either 1.5 lb ae/acre (2×) or 3.0 lb ae/acre (4×) of 2,4-D. Seven days after herbicide application, the plants were scored for herbicide injury based on the percent area of the plant showing injury, as indicated above.

Series [2] in a line: high-throughput enzyme assay with crude bacterial extract. It counts as biochemical. The conditions noted are these: relative to wild-type RdpA; for Average quizalofop-P activity: average of replicates. Here is the method: The high-throughput bacterial protein expression was achieved by synthesizing a recombinant DNA molecule encoding each engineered protein and cloning this into a bacterial expression vector with a C-terminal histidine tag (His-tag) operably linked to the recombinant DNA molecule. The vectors were used to transform Escherichia coli (E. coli), and bacterial expression of the engineered proteins was induced. Overnight E. coli cultures were grown in 96-well plates and the cultures were centrifuged to pellet the bacteria. The bacterial pellets were lysed by adding 100 ul lysis master mix (10 ml of Bacteria Protein Extraction Reagent (B-PER®) II (Pierce Biotechnology, Rockford, IL; cat. no. 78260); 10 ul Lysozyme (10 ug/ml final; Lysozyme American Bioanalytical, Natick, MA; cat. no. AB011780-00005); and 40 ul Benzonase® Nuclease (100 Units/ml final, Novagen, Darmstadt, Germany; cat no 71206-3)) to each well. The plates were vortexed then incubated for 30 minutes at 4° C. 400 ul of MOPS buffer (pH 6.57) was added to cach well and the debris pelleted by centrifugation. The lysate supernatant was carefully removed and used as the crude bacterial extract for subsequent enzymatic analysis.
(§1) The high-throughput herbicide degradation enzyme assay was designed to assay the enzymatic activity of the engineered proteins towards various herbicides using crude bacterial extract. The engineered protein's oxygenase activity (that is, its enzymatic activity) was measured by an end point colorimetric assay utilizing detection of phenol products through measurement of absorbance at 510 nm from 4-aminoantipyrine and potassium ferricyanide. This assay was based on the assay described in Fukomori and Hausinger, Journal of Biological Chemistry (1993) 268(32):24311-24317. Enzyme reactions were assayed in 96-well plates in a total volume of 150ul that contained: 20 mM MOPS pH 6.75, 50-200 uM NH4FeSO4, 50-200 uM sodium ascorbate, 1 mM alpha-ketoglutarate (aKG), 10 ul of E. coli cell lysate containing expressed engineered protein, and substrate (either an AOPP herbicide or phenoxy acid herbicide). […] Absorbance measurements were made on a standard laboratory spectrometer. Assays were scaled as needed to enhance throughput. Standard curves were generated using purified protein or product standards.
Using this high-throughput bacterial protein expression and enzyme assay system, activities of approximately 1200 engineered proteins were measured relative to the activity of a selected wild-type protein, RdpA. In a 96 well plate assay, there were 3 controls (crude bacterial extract without an engineered protein) and 3 positive controls (crude bacterial extract with wild-type protein). The absorbance of the wells was measured and the protein activity was calculated using the following formula:
[formula] where, Activityi is the activity of the sample, Absorbancei is the absorbance of the sample, AbsorbanceWT is the absorbance of the wells containing extract from E. coli expressing the wild-type enzyme, and AbsorbancepET is the absorbance of the wells containing extract from E. coli without an engineered protein. Activity for each unique engineered protein was measured in duplicate and was reported as an average of the two measurements.
Using the information learned from the first assays, protein engineering was then done as described previously to produce additional engineered proteins, which were tested as described in this Example 1. The results of the high-throughput enzyme assay with quizalofop-P as the substrate for five of these additional engineered proteins are provided in Table 2.

Series [3] is described as follows: enzyme kinetic measurements with purified protein. The class given is biochemical. To be noted: for Km: 0-1280 uM substrate; for Vmax Fenoxaprop / Vmax Fluazifop / Vmax Haloxyfop / Vmax Quizalofop-P: relative values. The procedure: as §1
Further protein characterization, such as Km, Vmax, and crystal structure analysis, was performed using the five engineered proteins from Table 2. For this detailed analysis, purified protein was prepared as follows: 2 ml overnight cultures of E. coli expressing a transgene encoding a given MON-HT protein were used to inoculate 500 ml of broth and grown at 37° C. for 4 hours followed by culture at 15° C. for approximately 36 hours. Then 250 ml of the 500 ml bacterial culture was pelleted by centrifugation and resuspended in 25 ml of extraction buffer (20 mM Tris, pH 7.8, 300 mM NaCl, 5 mM beta-mercaptoethanol (BME), 20 mM imidazole (Fluka/Sigma-Aldrich, St. Louis, MO), 125 units/ml of benzonase and 10K units/ml of lysozyme (Novagen, Darmstadt, Germany). The cell slurry was passed through a cell disruptor once at 20000 psi and then this cell lysate was clarified by centrifugation at 35,000×g for 20 min at 4° C. The supernatant containing the soluble His-tagged proteins was used for protein purification. For this purification, the supernatant was applied to a 1 ml HisTrap™ FF column (Nickel Sepharose) (GE Healthcare, Piscataway, NJ) using an AKTaxpress™ system (GE Healthcare, Piscataway, NJ) following the standard manufacturer's protocol. The wash buffer consisted of: 20 mM Tris pH 7.8, 300 mM NaCl, 20 mM imidazole and 5 mM BME. The composition of elution buffer was the same as the wash buffer except with 500 mM imidazole. The eluate from the nickel column was desalted on a Quick Spin Protein Sephadex G-25 fine column (Roche Applied Science, Indianapolis, IN) following the manufacturer's protocol. The eluted protein was in buffer consisting of: 20 mM Tris pH 7.8, 50 mM NaCl and 5 mM BME. Protein extract purity was assessed by SDS-PAGE analysis. Protein concentration was determined by Bradford assay using Bio-Rad Protein Assay dye reagent (Biorad, Hercules, CA, cat no 500-0006).
Purified protein for the five engineered proteins was analyzed using the enzyme assay described in this Example 1, but with four different AOPP herbicides as substrates: quizalofop-P, haloxyfop, fenoxaprop, and fluazifop. Standard curves were generated using 2,4-dichlorophenol (2,4-DCP), which was used to produce a general phenol standard curve. The amount of phenol generated in the assay by the engineered proteins was calculated based on this standard curve. The controls were purified wild-type enzyme, no enzyme, and no substrate. Enzyme kinetic measurements of the five engineered proteins was done using 0, 20, 40, 80, 160, 320, 640, or 1280 uM of quizalofop-P, haloxyfop, fenoxaprop, or fluazifop herbicides.

Where [4] appears, read: 2,4-D rate 2X (1.5 lb ae/acre), single copy R0 soy, seven days after application.

Read-outs that look alike come from different tables or passages of the source.

B1: MON-HT14: engineered oxygenase protein, amino acid sequence SEQ ID NO:48 (protein)
chain: MHAALTPLTNKYRHIDVQPLTGVLGAEITGVDLREPLDDSTWNEILDAFHTYQVIYFPGQAITNEQHIAFSRRFGPVDPVPILKSIEGYPEVQMIRREANESSRYIGDDWHADSTFLDAPPAAVVMRAIEVPEYGGDTGFLSMYSAWETLSPTMQATIEGLNVVHSATKVFGSLYQATNWRFSGTSVKVMDVDAGDRETVHPLVVTHPVTGRRALYCNQVYCQKIQGMTDAESKSLLQFLYEHATQFDFTCRVRWKKDQVLVWDNLCTMHRAVPDYAGKFRYLTRTTVAGDKPSR
With B1, the “Events with <20% injury” value in series [1] (setting [4]) was 9. Further, in series [1], the “tolerance to 2,4-D treatment” value is reported as “excellent tolerance”.

B2: MON-HT18: engineered oxygenase protein, amino acid sequence SEQ ID NO:52 (protein)
chain: MHAALTPLTNKYRHIDVQPLTGVLGAEITGVDLREPLDDSTWNEILDAFHTYQVIYFPGQAITNEQHIAFSRRFGPVDPVPILKSIEGYPEVQMIRREANESSRYIGDDWHADSTFLDAPPAAVVMRAIEVPEYGGDTGFLSMYSAWETLSPTMQATIEGLNVVHSATKVFGSLYQATNWRFSNTSVKVMDVDAGDRETVHPLVVTHPVTGRRALYCNQVYCQKIQGMTDAESKSLLQFLYEHATQFDFTCRVRWKKDQVLVWDNLCTMHRAVPDYAGKFRYLTRTTVAGDKPSR
Regarding B2, in series [1] (setting [4]), the “Events with 20-50% injury” value came out at 1 and the “Events with <20% injury” value is 11. In series [1], the “tolerance to 2,4-D treatment” value is “excellent tolerance”.

B3: MON-HT52: engineered oxygenase protein, amino acid sequence SEQ ID NO:4 (protein)
chain: MHAALSPLSQRFERIAVQPLTGVLGAEITGVDLREPLDDSTWNEILDAFHTYQVIYFPGQAITNEQQIAFSRRFGPVDPVPLLKSIEGYPEVQMIRREANESGRVIGDDWHTDSTFLDAPPAAVVMRAIDVPEHGGDTGFLSMYTAYDALSDGLKKLISGLNVVHSATRVFGSLYQAQNRRFSNTSVKVMDVDAGDRETVHPLVVTHPGSGRKGLYVNQVYCQRIEGMSEKESEPLLSFLFAHATKPEFTCRVRWKKDQVLVWDNLCTMHYAINDYHGQTRILHRTTVGGVRPAR
B3: in series [2], the “Replicate 1 quizalofop-P activity” value is reported as 92.17, the “Replicate 2 quizalofop-P activity” value stood at 54.46, the “Replicate 3 quizalofop-P activity” value is on record as 89.75 and the “Average quizalofop-P activity” value came to 78.79. Also, in series [3] (read-out: Km Fenoxaprop), the Michaelis-Menten constant (Km) turned out to be 490 µM. In series [3] (read-out: Km Fluazifop), the Km turned out to be 14 µM. Moreover, the Michaelis-Menten constant (Km) in series [3] (read-out: Km Haloxyfop) was 280 µM. Also, in series [3] (read-out: Km Quizalofop-P), the Km was 420 µM. Also, in series [3], the “Vmax Fenoxaprop” value is given as 420, the “Vmax Fluazifop” value came to 43, the “Vmax Haloxyfop” value was 45 and the “Vmax Quizalofop-P” value was found to be 39.

B4: MON-HT53: engineered oxygenase protein, amino acid sequence SEQ ID NO:7 (protein)
chain: MHAALSPLSQRFERIAVQPLTGVLGAEITGVDLREPLSDSTWNEILDAFHTYQVIYFPGQAITNEQHIAFSRRFGPVDPVPLLKSIEGYPEVQMIRREANESGRVIGDDWHSDSTFLDAPPAAVVMRAIDVPEHGGDTGFLSMYTAYDALSDGLKKLISGLNVVHSATRVFGSLYQAQNRRFSNTSVKVMDVDAGDRETVHPLVVTHPGSGRKGLYVNQVYCQRIEGMSEKESEPLLSFLFAHATKPEFTCRVRWKKDQVLVWDNLCTMHYAINDYHGQTRILHRTTVGGVRPAR
With B4, in series [2], the “Replicate 1 quizalofop-P activity” value is listed as 105.34, the “Replicate 2 quizalofop-P activity” value worked out at 105.31, the “Replicate 3 quizalofop-P activity” value amounted to 106.13 and the “Average quizalofop-P activity” value is reported as 105.60. In addition, the Michaelis constant (Km) in series [3] (read-out: Km Fenoxaprop) came to 1100 µM. Moreover, in series [3] (read-out: Km Fluazifop), the Michaelis constant (Km) is 1 µM. Further, the Km in series [3] (read-out: Km Haloxyfop) amounted to 290 µM. The Km in series [3] (read-out: Km Quizalofop-P) worked out at 690 µM. In addition, in series [3], the “Vmax Fenoxaprop” value is reported as 640, the “Vmax Fluazifop” value was found to be 40, the “Vmax Haloxyfop” value was determined as 64 and the “Vmax Quizalofop-P” value amounted to 95.

B5: MON-HT54: engineered oxygenase protein, amino acid sequence SEQ ID NO:9 (protein)
chain: MHAALSPLSQRFERIAVQPLTGVLGAEITGVDLREPLDDSTWNEILDAFHTYQVIYFPGQAITNEQHIAFSRRFGPVDPVPLLKSIEGYPEVQMIRREANESGRVLGDDWHTDSTFLDAPPAAVVMRAIDVPEHGGDTGFLSMYTAYDALSDGLKKLISGLNVVHSATRVFGSLYQAQNRRFSNTSVKVMDVADGDRETVHPLVVTHPGSGRKGLYVNQVYCQRIEGMSEKESEPLLSFLFAHATKPEFTCRVRWKKDQVVVWDNLCTMHYAINDYHGQTRILHRTTVGGVRPAR
As to B5, in series [2], the “Replicate 1 quizalofop-P activity” value was found to be 131.85, the “Replicate 2 quizalofop-P activity” value is on record as 149.77, the “Replicate 3 quizalofop-P activity” value was 130.56 and the “Average quizalofop-P activity” value was 137.39. For the same molecule, the Michaelis-Menten constant (Km) in series [3] (read-out: Km Fenoxaprop) worked out at 2100 µM. Further, the Km in series [3] (read-out: Km Haloxyfop) amounted to 380 µM. Besides, the Km in series [3] (read-out: Km Quizalofop-P) was found to be 560 µM. Also, in series [3], the “Vmax Fenoxaprop” value is on record as 630, the “Vmax Haloxyfop” value came to 40 and the “Vmax Quizalofop-P” value turned out to be 32.
